Results taken from paper PMC3089477.
Substitutions are numbered along the chain they refer to.

T1: BcnI H77A (UniProt Q8RNV8 1-238, H77A)
T1 sequence: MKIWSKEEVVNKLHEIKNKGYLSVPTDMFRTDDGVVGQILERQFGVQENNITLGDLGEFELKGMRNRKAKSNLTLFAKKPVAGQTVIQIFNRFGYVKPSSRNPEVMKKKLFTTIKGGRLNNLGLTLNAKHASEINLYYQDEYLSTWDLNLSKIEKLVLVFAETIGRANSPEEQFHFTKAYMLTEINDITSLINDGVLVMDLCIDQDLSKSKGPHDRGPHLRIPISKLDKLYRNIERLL

T2: BcnI H219N (UniProt Q8RNV8 1-238, H219N)
T2 sequence: T1 sequence with A77H, H219N

T3: BcnI H219Q (UniProt Q8RNV8 1-238, H219Q)
T3 sequence: T1 sequence with A77H, H219Q

T4: BcnI H77N (UniProt Q8RNV8 1-238, H77N)
T4 sequence: T1 sequence with A77N

T5: BcnI H77N+H219N (UniProt Q8RNV8 1-238, H77N;H219N)
T5 sequence: T1 sequence with A77N, H219N

T6: BcnI wt (UniProt Q8RNV8 1-238)
T6 sequence: T1 sequence with A77H

T7: BcnI H77A+H219N (UniProt Q8RNV8 1-238, H77A;H219N)
T7 sequence: T1 sequence with H219N

B1: TA oligoduplex (miscognate) (dsDNA)
DNA 1: CGCACGACTTCCTGGAAGAGCACGC
DNA 2: GTTGCGTGCTCTTCCAGGAAGTCGTGCG
B2: CG oligoduplex (cognate) (dsDNA)
DNA 1: CGCACGACTTCCCGGAAGAGCACGC
DNA 2: GTTGCGTGCTCTTCCGGGAAGTCGTGCG

Experiments:
Test in all cases: EMSA
[1] = molecular target: T1, BcnI H77A
[2] = molecular target: T2, BcnI H219N
[3] = molecular target: T3, BcnI H219Q
[4] = molecular target: T4, BcnI H77N
[5] = molecular target: T5, BcnI H77N+H219N
[6] = molecular target: T6, BcnI wt
[7] = molecular target: T7, BcnI H77A+H219N

Binder	Kd [1] [nM]	Kd [2] [nM]	Kd [3] [nM]	Kd [4] [nM]	Kd [5] [nM]	Kd [6] [nM]	Kd [7] [nM]
B1	25	–	–	–	–	–	–
B2	0.25	0.4	0.6	0.3	20	0.5	0.5
